Laboratory results from the supplement of paper PMC10724198.
± gives the standard deviation of the averaged measurements.

Tested on: Saccharomyces cerevisiae
Experiment: protein stability index of tFT-peptide fusion (C-terminal peptide) (PSI (0-1 scale)); higher = more stable (slower turnover)
Experimental: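 MPS profiling in S. cerevisiae of the tFT-X12 degron library: putative degron peptides plus stable controls, 12 aa, fused to the C-terminus of a sfGFP-mCherry timer. Cells are FACS-sorted into 8 mCherry/sfGFP bins and deep-sequenced. PSI runs from 0 (unstable) to 1 (stable). Backgrounds are wild type, das1Δ and doa10Δ at 30 °C, and wild type, das1Δ, cdc34-1 and cdc53-1 at 37 °C; 2-3 technical replicates each.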

[1] = genetic background: cdc34-1, temperature: 37 C
[2] = genetic background: cdc53-1, temperature: 37 C
[3] = genetic background: das1 deletion, temperature: 30 C
[4] = genetic background: das1 deletion, temperature: 37 C
[5] = genetic background: doa10 deletion, temperature: 30 C
[6] = genetic background: wild type, temperature: 30 C
[7] = genetic background: wild type, temperature: 37 C
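Also: PSI is a weighted mean of sequencing reads over stability bins, variants kept only with over 10 reads, mCherry proximal and sfGFP distal, peptide attached via GGGS linker.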

Sequence	protein stability index [1]	protein stability index [2]	protein stability index [3]	protein stability index [4]	protein stability index [5]	protein stability index [6]	protein stability index [7]
LDVGGRRGGEHC	0.598 ± 0.071	0.646 ± 0.096	0.554 ± 0.024	0.6665 ± 0.0011	0.583 ± 0.092	0.594 ± 0.077	0.598 ± 0.011
FPPCSFLGFLVF	0.69 ± 0.027	0.768 ± 0.014	0.571 ± 0.023	0.73 ± 0.014	0.556 ± 0.018	0.556 ± 0.014	0.688 ± 0.034
LFVLVLLCWMLT	0.347 ± 0.038	0.462 ± 0.014	0.373 ± 0.029	0.42739 ± 0.00025	0.357 ± 0.012	0.34 ± 0.013	0.434 ± 0.03
FFSFLFLLLFGA	0.566 ± 0.016	0.643 ± 0.0069	0.556 ± 0.018	0.619 ± 0.07	0.555 ± 0.016	0.5673 ± 0.0056	0.617 ± 0.046
YVFSPLSCWASV	0.692 ± 0.056	0.74 ± 0.0086	0.608 ± 0.021	0.7459 ± 0.0044	0.603 ± 0.037	0.596 ± 0.017	0.695 ± 0.019
PHSMRTTTIMCS	0.357 ± 0.034	0.444 ± 0.021	0.296 ± 0.031	0.516 ± 0.0075	0.214 ± 0.0032	0.243 ± 0.056	0.436 ± 0.0045
RPPPAANFTRSS	0.655 ± 0.022	0.688 ± 0.024	0.665 ± 0.016	0.698 ± 0.012	0.665 ± 0.018	0.661 ± 0.0078	0.679 ± 0.012
GFTIFFFFFFFV	0.227 ± 0.043	0.234 ± 0.018	0.193 ± 0.035	0.266 ± 0.045	0.287 ± 0.056	0.165 ± 0.0033	0.264 ± 0.0077
YGETRGGGRGRW	0.587 ± 0.049	0.887 ± 0.038	0.475 ± 0.034	0.766 ± 0.16	0.563 ± 0.13	0.538 ± 0.12	0.65 ± 0.11
